Source: patent US20190359687A1 (Bayer, published 2019)

T1: human glycophorin A in the red blood cell membrane (human, UniProt P02724 20-150)
T1 construct: whole, on cells; used for intact RBC, isolated RBC membranes and transfected cells; the assay field tells which; also called GPA; hGPA
T1 sequence (looked up): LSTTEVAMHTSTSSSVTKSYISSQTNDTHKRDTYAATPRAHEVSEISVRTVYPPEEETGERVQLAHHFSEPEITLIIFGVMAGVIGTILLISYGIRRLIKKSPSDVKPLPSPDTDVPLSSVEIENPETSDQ

T2: Rhesus monkey glycophorin A on Rhesus monkey red blood cells (Rhesus monkey, UniProt A0A1D5Q349 20-150)
T2 construct: whole, on cells; also called Rhesus RBC; monkey GPA
T2 sequence: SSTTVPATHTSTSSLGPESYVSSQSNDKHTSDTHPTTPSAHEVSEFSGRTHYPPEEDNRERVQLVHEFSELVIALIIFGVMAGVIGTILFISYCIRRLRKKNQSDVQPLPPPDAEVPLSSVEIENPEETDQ


What was measured:
[1] = target: T1, human glycophorin A in the red blood …; assay: FACS, IgG
Procedure: (§1) The binding of the humanized variants to intact red blood cells (RBC) from humans (Hu01 to 03; 3 individuals), Rhesus monkey (Rh01 to 03; 3 individuals) and Cynomolgus monkey (Cy01 to 02; 2 individuals) was measured by fluorescence activated cell sorting (FACS).

[2] = target: T2, Rhesus monkey glycophorin A on Rhesus …; assay: FACS, RBC Rh01
Procedure: as §1

[3] = target: T1, human glycophorin A in the red blood …; assay: FACS, RBC Hu03
Procedure: as §1

[4] = target: T2, Rhesus monkey glycophorin A on Rhesus …; assay: FACS, RBC Rh03
Procedure: as §1

[5] = target: T1, human glycophorin A in the red blood …; assay: FACS, RBC Hu01
Procedure: as §1

[6] = target: T1, human glycophorin A in the red blood …; assay: FACS, RBC Hu02
Procedure: as §1

[7] = target: T3, Cynomolgus monkey glycophorin A on Cynomolgus monkey red blood cells (Cynomolgus monkey); assay: FACS, RBC Cy01
T3 construct: whole, on cells; also called Cyno RBC; Cyno GPA
Procedure: as §1

[8] = target: T3, Cynomolgus monkey glycophorin A on …; assay: FACS, RBC Cy02
Procedure: as §1

[9] = target: T2, Rhesus monkey glycophorin A on Rhesus …; assay: FACS, RBC Rh02
[10] = target: T3, Cynomolgus monkey glycophorin A on …; assay: FACS, Cyno #2 RBC
[11] = target: T2, Rhesus monkey glycophorin A on Rhesus …; assay: FACS, Rhesus RBC
[12] = target: T4, dog red blood cells (dog); assay: FACS, Dog RBC
T4 construct: also called dog RBC

[13] = target: T3, Cynomolgus monkey glycophorin A on …; assay: FACS, Cyno #3 RBC
[14] = target: T3, Cynomolgus monkey glycophorin A on …; assay: FACS, Cyno #1 RBC
[15] = target: T1, human glycophorin A in the red blood …; assay: FACS, Human RBC

Row | binding result [1] | fluorescence intensity [2] | fluorescence intensity [3] | fluorescence intensity [4] | fluorescence intensity [5] | fluorescence intensity [6] | fluorescence intensity [7] | fluorescence intensity [8] | fluorescence intensity [9] | FACS signal [10] [Flourescent units] | FACS signal [11] [Flourescent units] | FACS signal [12] [Flourescent units] | FACS signal [13] [Flourescent units] | FACS signal [14] [Flourescent units] | FACS signal [15] [Flourescent units] | Binder
1 | no binding | 1190 | 2 | 1140 | 3 | 3 | 742 | 801 | 1120 |  |  |  |  |  |  | Hu6C12-1 (antibody, V domains shown, IgG format; VH.1a + Vk.1) VH: EVQLVQSGAEVKKPGASVKVSCKASGYTFTTYTIHWVRQAPGQGLEWMGYINPSSDYTRYNPKFKDRVTMTTDTSTSTAYMELRSLRSDDTAVYYCQRGTRDYWGQGTTVTVSS VL: DIQLTQSPSFLSASVGDRVTITCSAASSVSYIYWYQQKPGKAPKLLIYSTSTLPSGVPSRFSGSGSGTEFTLTISSLQPEDFATYYCHQRNSFPFTFGQGTKLEIK
2 | no binding |  | 2 |  | 3 | 3 | 104 | 127 |  |  |  |  |  |  |  | Hu6C12-17 (antibody, V domains shown, IgG format; VH.1 + Vk.1b) VH: EVQLVQSGAEVKKPGASVKVSCKASGYTFTTYTIHWVRQAPGQGLEWMGYINPSSDYTRYNPKFKDRVTMTTDTSTSTAYMELRSLRSDDTAVYYCARGTRDYWGQGTTVTVSS VL: DIQLTQSPSFLSASVGDRVTITCSAASSVSYIYWFQQKPGKAPKLLIYSTSTLPSGVPSRFSGSGSGTEYTLTISSLQPEDFATYYCHQRNSFPFTFGQGTKLEIK
3 | no binding |  | 2 |  | 3 | 3 | 741 | 876 |  |  |  |  |  |  |  | Hu6C12-18 (antibody, V domains shown, IgG format; VH.1a + Vk.1b) VH: EVQLVQSGAEVKKPGASVKVSCKASGYTFTTYTIHWVRQAPGQGLEWMGYINPSSDYTRYNPKFKDRVTMTTDTSTSTAYMELRSLRSDDTAVYYCQRGTRDYWGQGTTVTVSS VL: DIQLTQSPSFLSASVGDRVTITCSAASSVSYIYWFQQKPGKAPKLLIYSTSTLPSGVPSRFSGSGSGTEYTLTISSLQPEDFATYYCHQRNSFPFTFGQGTKLEIK
4 |  |  |  |  |  |  |  |  |  | 981 | 1860 | 1 | 632 | 2 | 2760 | 13G7 scFv-Fc (Fc fusion, as m18) scFv: RVQLQQSGAELARPGASVKMSCKASGYTFTNYAMHWVKQRPGQGLEWIGYINPKSDNTNYNQKFKDKATLTTDKSSATAYMQLSSLTSDDSAVYYCQTGTRDYWGQGTTLTVSSGGGGSGGGGSGGGGSHIVLTQSPAIMSASPGEKVTIFCSASSSITYVYWFQQKPGTSPKLWIYSTSSLPSGVPARFSGSGSGTSYSLTISRMEAEDAATYYCHQRNSYPFTFGSGTKLEIKGGGGAGGGGCKPCICTVPEVSSVFIFPPKPKDVLTITLTPKVTCVVVDISKDDPEVQFSWFVDDVEVHTAQTQPREEQFNSTFRSVSELPIMHQDWLNGKEFKCRVNSAAFPAPIEKTISKTKGRPKAPQVYTIPPPKEQMAKDKVSLTCMITDFFPEDITVEWQWNGQPAENYKNTQPIMDTDGSYFVYSKLNVQKSNWEAGNTFTCSVLHEGLHNHHTEKSLSHSPGK
5 |  |  |  |  |  |  |  |  |  | 956 | 1860 | 1 | 580 | 2 | 2900 | 12C6 scFv-Fc (Fc fusion, as m18) scFv: QVQLQQSGAELARPGASVKMSCKASGYTFTRYSMHWVKQRPGQGLEWIGYINPGTYSTNYNQKFKDRATLTADKSSSTAYMQLNSLTSEDSAVYYCQTGTRDYWGQGTTLTVSSGGGGSGGGGSGGGGSQIVLTQSPPIMSASPGEKVTITCSAASSVSYIYWFQQKPGTSPKLWIYSTSSLPSGVPTRFSGSGSGTSYSLTISRMEAEDAATYYCHQRSSYPFTFGSGTKLEIRGGGGAGGGGCKPCICTVPEVSSVFIFPPKPKDVLTITLTPKVTCVVVDISKDDPEVQFSWFVDDVEVHTAQTQPREEQFNSTFRSVSELPIMHQDWLNGKEFKCRVNSAAFPAPIEKTISKTKGRPKAPQVYTIPPPKEQMAKDKVSLTCMITDFFPEDITVEWQWNGQPAENYKNTQPIMDTDGSYFVYSKLNVQKSNWEAGNTFTCSVLHEGLHNHHTEKSLSHSPGK
6 |  |  |  |  |  |  |  |  |  | 842 | 2070 | 1 | 647 | 2 | 2980 | 10F1 scFv-Fc (Fc fusion, as m18) scFv: QVQLLQSGAELARPGASVRISCKASGYTFTRYAMHWVKQRPGQGLEWIGYINPGTFSTNYNQKFKDRATLTADKSSSTAYMQLNSLTSEDSAVYYCQTGTRDYWGQGTTLTVSSGGGGSGGGGSGGGGSQIVLTQSPPIMSASPGEKVTITCSAASSVSYIYWFQQKPGTSPKLWIYSTSSLPSGVPTRFSGSGSGTSYSLTISRMEAEDAATYYCHQRSSYPFTFGSGTKLEIRGGGGAGGGGCKPCICTVPEVSSVFIFPPKPKDVLTITLTPKVTCVVVDISKDDPEVQFSWFVDDVEVHTAQTQPREEQFNSTFRSVSELPIMHQDWLNGKEFKCRVNSAAFPAPIEKTISKTKGRPKAPQVYTIPPPKEQMAKDKVSLTCMITDFFPEDITVEWQWNGQPAENYKNTQPIMDTDGSYFVYSKLNVQKSNWEAGNTFTCSVLHEGLHNHHTEKSLSHSPGK
7 |  |  |  |  |  |  |  |  |  | 761 | 1770 | 1 | 582 | 2 | 2340 | 8F9 scFv-Fc (Fc fusion, as m18) scFv: QVQLQQSGAELARPGASVKMSCKASGYTFTSYSIHWIKQRPGQSLEWIGYINPNSDYANYNQKFKDKATLTTDKSSTTAYMQLSSLTTDDSAVYYCQTGTRDYWGQGTTLTVSSGGGGSGGGGSGGGGSHIVLTQSPAIMSASPGEKVTIICSARSSVSYMYWFQQKPGTSPKLWIYATSSLPSGVPARFSGSGSGTSYSLTISRMEAEDAATYYCHQRSSYPYTFGSGTKLEIKGGGGAGGGGCKPCICTVPEVSSVFIFPPKPKDVLTITLTPKVTCVVVDISKDDPEVQFSWFVDDVEVHTAQTQPREEQFNSTFRSVSELPIMHQDWLNGKEFKCRVNSAAFPAPIEKTISKTKGRPKAPQVYTIPPPKEQMAKDKVSLTCMITDFFPEDITVEWQWNGQPAENYKNTQPIMDTDGSYFVYSKLNVQKSNWEAGNTFTCSVLHEGLHNHHTEKSLSHSPGK
8 |  |  |  |  |  |  |  |  |  | 1 | 1 | 1 | 1 | 1 | 1410 | 7G4 scFv-Fc (Fc fusion, as m18) scFv: QVQLKESGPGLVAPSQSLSITCTVSGFSLTRFGISWVRQPPGKGLEWMGVIWGDGSTDYHSALISRLSITKDNSKSQVFFRLNSLQSDDSATYYCARSFGMDYWGQGTSVTVSSGGGGSGGGGSGGGGSNIMMTQSPSSLAVSAGEKVTMSCKSSQSILNSSNQKNYLAWYQQKPGQSPKLLIYWASTRESGVPDRFTGSGSGTDFTLTISSVQAEDLAVYYCHQYFSSRTFGGGTKLEIKGGGGAGGGGCKPCICTVPEVSSVFIFPPKPKDVLTITLTPKVTCVVVDISKDDPEVQFSWFVDDVEVHTAQTQPREEQFNSTFRSVSELPIMHQDWLNGKEFKCRVNSAAFPAPIEKTISKTKGRPKAPQVYTIPPPKEQMAKDKVSLTCMITDFFPEDITVEWQWNGQPAENYKNTQPIMDTDGSYFVYSKLNVQKSNWEAGNTFTCSVLHEGLHNHHTEKSLSHSPGK
